These results are taken from ChEMBL document CHEMBL2074010, “Transport function and hepatocellular localization of mrp6 in rat liver” (Mol Pharmacol, 2000).

Substrate in data set [1]: CC(C)C[C@@H]1NC(=O)[C@@H](C(C)C)NC(=O)[C@@H]2CCCN2C(=O)[C@@H](CC(=O)O)NC(=O)[C@@H](Cc2c[nH]c3ccccc23)NC1=O
Kind of data set: TP_TRANSPORTER: uptake in membrane vesicle from Mrp6-expressing Sf9 cells. It counts as functional, cell membranes.

Substrate in data set [2]: CC(C)C[C@@H]1NC(=O)[C@@H](C(C)C)NC(=O)[C@@H]2CCCN2C(=O)[C@@H](CC(=O)O)NC(=O)[C@@H](Cc2c[nH]c3ccccc23)NC1=O
Put plainly: TP_TRANSPORTER: uptake in membrane vesicles from Mrp2-expressing Sf9 cells. It counts as functional, cell membranes, Membrane vesicle.

B1: ATP-binding cassette sub-family C member 6 (Rattus norvegicus) (protein)
chain: MNGEHSMATPGESCAGLRVWNQTEQEPVAYHLLNLCFLRAAGSWVPPMYLWVLGPIYLLYIHRHGCCYLRMSRLFKIKMVLGFALILLYTFNAAVPLWRIHRGMPQAPELLIHPTVWLTTMSFATFLIHMERKKGVRASGLLFGYWLLCCLVPAIDTVQQASAGSFRQEPLHHLATYLCLSLVVAELVLSCLVDQPPFFSEDSKPLNPCPEAEASFPSKAMFWWASGLLWKGYRKLLGPKDLWSLERENSSEELVSQLEREWRRNFSELPGHKGHSGMGTPETEAFLQPERSQRGPLLRAIWRVFRSTFLLGTLSLVISDAFRFAVPKLLSLFLEFMGDLESSAWTGWLLAVLMFLSACLQTLFEQQYMYRVKVLQMRLRTAITGLVYRKVLVLSSGSRKSSAAGDVVNLVSVDVQRLVESILHLNGLWLLFLWIIVCFVYLWQLLGPSALTAVAVFLSLLPLNFFITKKRSFHQEEQMRQKASRARLTSSMLRTVRTIKSHGWECAFLERLLHIRGQELGALKTSAFLFSVSLVSFQVSTFLVALVVFAVHTLVAEDNAMDAEKAFVTLTVLSILNKAQAFLPFSVHCLVQARVSFDRLAAFLCLEEVDPNGMVLSPSRCSSKDRISIHNGTFAWSQESPPCLHGINLTVPQGCLLAVVGPVGAGKSSLLSALLGELLKVEGSVSIEGSVAYVPQEAWVQNTSVVENVCFRQELDLPWLQEVLEACALGSDVASFPAGVHTPVGEQGMNLSGGQKQRLSLARAVYRRAAVYLMDDPLAALDAHVSQEVFKQVIGPSGLLQGTTRILVTHTLHVLPQADQILVLANGTIAEMGSYQDLLHRNGALVGLLDGARQPAGEGEGEAHAAATSDDLGGFSGGGTPTRRPERPRPSDAAPVKGSTSEAQMEPSLDDVEVTGLTAGEDSVQYGRVKSATYLSYLRAVGTPLCTYTLFLFLCQQVASFCQGYWLSLWADDPVVDGKQMHSALRGSIFGLLGCLQAIGLFASMAAVFLGGARASCLLFRSLLWDVARSPIGFFERTPVGNLLNRFSKETDIVDVDIPDKMRTLLTYAFGLLEVGLAVSMATPLAIVAILPLMLLYAGFQSLYVATCCQLRRLESASYSSVCSHLAETFQGSQVVRAFQAQGPFTAQHDALMDENQRISFPRLVADRWLAANLELLGNGLVFVAATCAVLSKAHLSAGLAGFSVSAALQVTQTLQWVVRSWTDLENSMVAVERVQDYVHTPKEAPWRLPSSAAQPLWPCGGQIEFRDFGLRHRPELPMAVQGVSLKIHAGEKVGIVGRTGAGKSSLTWGLLRLQEATEGGIWIDGVPITDMGLHTLRSRITIIPQDPVLFPGSLRMNLDLLQENTDEGIWAALETVQLKAFVTSLPGQLQYECSGQGDDLSVGQKQLLCLARALLRKTQILILDEATASVDPGTEIQMQAALERWFAQCTVLLIAHRLRSVMNCARVLVMDEGQVAESGSPAQLLAQKGLFYRLAQESGLA
As a reminder, the Km is the substrate concentration at which the rate is half of its maximum. In the case of B1, in data set [1], the Km was found to be 17 µM.

B2: ATP-binding cassette sub-family C member 2 (Rattus norvegicus) (protein)
chain: MDKFCNSTFWDLSLLESPEADLPLCFEQTVLVWIPLGFLWLLAPWQLYSVYRSRTKRSSITKFYLAKQVFVVFLLILAAIDLSLALTEDTGQATVPPVRYTNPILYLCTWLLVLAVQHSRQWCVRKNSWFLSLFWILSVLCGVFQFQTLIRALLKDSKSNMAYSYLFFVSYGFQIVLLILTAFSGPSDSTQTPSVTASFLSSITFSWYDRTVLKGYKHPLTLEDVWDIDEGFKTRSVTSKFEAAMTKDLQKARQAFQRRLQKSQRKPEATLHGLNKKQSQSQDVLVLEEAKKKSEKTTKDYPKSWLIKSLFKTFHVVILKSFILKLIHDLLVFLNPQLLKLLIGFVKSSNSYVWFGYICAILMFAVTLIQSFCLQSYFQHCFVLGMCVRTTVMSSIYKKALTLSNLARKQYTIGETVNLMSVDSQKLMDATNYMQLVWSSVIQITLSIFFLWRELGPSILAGVGVMVLLIPVNGVLATKIRNIQVQNMKNKDKRLKIMNEILSGIKILKYFAWEPSFQEQVQGIRKKELKNLLRFGQLQSLLIFILQITPILVSVVTFSVYVLVDSANVLNAEKAFTSITLFNILRFPLSMLPMVTSSILQASVSVDRLERYLGGDDLDTSAIRRVSNFDKAVKFSEASFTWDPDLEATIQDVNLDIKPGQLVAVVGTVGSGKSSLVSAMLGEMENVHGHITIQGSTAYVPQQSWIQNGTIKDNILFGSEYNEKKYQQVLKACALLPDLEILPGGDMAEIGEKGINLSGGQKQRVSLARAAYQDADIYILDDPLSAVDAHVGKHIFNKVVGPNGLLAGKTRIFVTHGIHFLPQVDEIVVLGKGTILEKGSYRDLLDKKGVFARNWKTFMKHSGPEGEATVNNDSEAEDDDDGLIPTMEEIPEDAASLAMRRENSLRRTLSRSSRSSSRRGKSLKNSLKIKNVNVLKEKEKEVEGQKLIKKEFVETGKVKFSIYLKYLQAVGWWSILFIILFYGLNNVAFIGSNLWLSAWTSDSDNLNGTNNSSSHRDMRIGVFGALGLAQGICLLISTLWSIYACRNASKALHGQLLTNILRAPMRFFDTTPTGRIVNRFSGDISTVDDLLPQTLRSWMMCFFGIAGTLVMICMATPVFAIIIIPLSILYISVQVFYVATSRQLRRLDSVTKSPIYSHFSETVTGLPIIRAFEHQQRFLAWNEKQIDINQKCVFSWITSNRWLAIRLELVGNLVVFCSALLLVIYRKTLTGDVVGFVLSNALNITQTLNWLVRMTSEAETNIVAVERISEYINVENEAPWVTDKRPPADWPRHGEIQFNNYQVRYRPELDLVLKGITCNIKSGEKVGVVGRTGAGKSSLTNCLFRILESAGGQIIIDGIDVASIGLHDLRERLTIIPQDPILFSGSLRMNLDPFNKYSDEEVWRALELAHLRSFVSGLQLGLLSEVTEGGDNLSIGQRQLLCLGRAVLRKSKILVLDEATAAVDLETDSLIQTTIRKEFSQCTVITIAHRLHTIMDSDKIMVLDNGKIVEYGSPEELLSNRGSFYLMAKEAGIENVNHTEL
In the case of B2, the Km in data set [2] amounted to 124 µM.
